Measured values reported in patent US20190194280A1.

target: Serum samples collected at week 16 from patients immunized with UBI AD vaccine (UB-311); assay: comp. ELISA, serum P207

Binder | IC50-based peak height
TEEISEVKMD [Aβ-9-1 or APP 770 (T663-D672)] | 0
EEISEVKMDA [Aβ-8-2 or APP 770 (E664-A673)] | 0
EISEVKMDAE [Aβ-7-3 or APP 770 (E665-E674)] | 0
ISEVKMDAEF [Aβ-6-4 or APP 770 (I666-F675)] | 0
SEVKMDAEFR [Aβ-5-5 or APP 770 (S667-R676)] | 0
EVKMDAEFRH [Aβ-4-6 or APP 770 (E668-H677)] | 1

target: Serum samples collected at week 16 from patients immunized with UBI AD vaccine (UB-311); assay: comp. ELISA, serum P105

Binder | IC50-based peak height
TEEISEVKMD [Aβ-9-1 or APP 770 (T663-D672)] | 0
EEISEVKMDA [Aβ-8-2 or APP 770 (E664-A673)] | 0
EISEVKMDAE [Aβ-7-3 or APP 770 (E665-E674)] | 0
ISEVKMDAEF [Aβ-6-4 or APP 770 (I666-F675)] | 0
SEVKMDAEFR [Aβ-5-5 or APP 770 (S667-R676)] | 0
EVKMDAEFRH [Aβ-4-6 or APP 770 (E668-H677)] | 0

target: Serum samples collected at week 16 from patients immunized with UBI AD vaccine (UB-311); assay: comp. ELISA, serum P201

Binder | IC50-based peak height
TEEISEVKMD [Aβ-9-1 or APP 770 (T663-D672)] | 0
EEISEVKMDA [Aβ-8-2 or APP 770 (E664-A673)] | 0
EISEVKMDAE [Aβ-7-3 or APP 770 (E665-E674)] | 0
ISEVKMDAEF [Aβ-6-4 or APP 770 (I666-F675)] | 0
SEVKMDAEFR [Aβ-5-5 or APP 770 (S667-R676)] | 0
EVKMDAEFRH [Aβ-4-6 or APP 770 (E668-H677)] | 58

target: Serum samples collected at week 16 from patients immunized with UBI AD vaccine (UB-311); assay: comp. ELISA, serum P204

Binder | IC50-based peak height
TEEISEVKMD [Aβ-9-1 or APP 770 (T663-D672)] | 0
EEISEVKMDA [Aβ-8-2 or APP 770 (E664-A673)] | 0
EISEVKMDAE [Aβ-7-3 or APP 770 (E665-E674)] | 0
ISEVKMDAEF [Aβ-6-4 or APP 770 (I666-F675)] | 0
SEVKMDAEFR [Aβ-5-5 or APP 770 (S667-R676)] | 0
EVKMDAEFRH [Aβ-4-6 or APP 770 (E668-H677)] | 0

target: Serum samples collected at week 16 from patients immunized with UBI AD vaccine (UB-311); assay: comp. ELISA, serum P203

Binder | IC50-based peak height
TEEISEVKMD [Aβ-9-1 or APP 770 (T663-D672)] | 0
EEISEVKMDA [Aβ-8-2 or APP 770 (E664-A673)] | 0
EISEVKMDAE [Aβ-7-3 or APP 770 (E665-E674)] | 0
ISEVKMDAEF [Aβ-6-4 or APP 770 (I666-F675)] | 0
SEVKMDAEFR [Aβ-5-5 or APP 770 (S667-R676)] | 0
EVKMDAEFRH [Aβ-4-6 or APP 770 (E668-H677)] | 0

target: Serum samples collected at week 16 from patients immunized with UBI AD vaccine (UB-311); assay: comp. ELISA, serum P108

Binder | IC50-based peak height
TEEISEVKMD [Aβ-9-1 or APP 770 (T663-D672)] | 0
EEISEVKMDA [Aβ-8-2 or APP 770 (E664-A673)] | 0
EISEVKMDAE [Aβ-7-3 or APP 770 (E665-E674)] | 0
ISEVKMDAEF [Aβ-6-4 or APP 770 (I666-F675)] | 0
SEVKMDAEFR [Aβ-5-5 or APP 770 (S667-R676)] | 0
EVKMDAEFRH [Aβ-4-6 or APP 770 (E668-H677)] | 0

target: Serum samples collected at week 16 from patients immunized with UBI AD vaccine (UB-311); assay: comp. ELISA, serum P209

Binder | IC50-based peak height
TEEISEVKMD [Aβ-9-1 or APP 770 (T663-D672)] | 0
EEISEVKMDA [Aβ-8-2 or APP 770 (E664-A673)] | 0
EISEVKMDAE [Aβ-7-3 or APP 770 (E665-E674)] | 0
ISEVKMDAEF [Aβ-6-4 or APP 770 (I666-F675)] | 0
SEVKMDAEFR [Aβ-5-5 or APP 770 (S667-R676)] | 0
EVKMDAEFRH [Aβ-4-6 or APP 770 (E668-H677)] | 0

target: Serum samples collected at week 16 from patients immunized with UBI AD vaccine (UB-311); assay: comp. ELISA, serum P205

Binder | IC50-based peak height
TEEISEVKMD [Aβ-9-1 or APP 770 (T663-D672)] | 0
EEISEVKMDA [Aβ-8-2 or APP 770 (E664-A673)] | 0
EISEVKMDAE [Aβ-7-3 or APP 770 (E665-E674)] | 0
ISEVKMDAEF [Aβ-6-4 or APP 770 (I666-F675)] | 0
SEVKMDAEFR [Aβ-5-5 or APP 770 (S667-R676)] | 0
EVKMDAEFRH [Aβ-4-6 or APP 770 (E668-H677)] | 0

target: Serum samples collected at week 16 from patients immunized with UBI AD vaccine (UB-311); assay: comp. ELISA, serum P103

Binder | IC50-based peak height
TEEISEVKMD [Aβ-9-1 or APP 770 (T663-D672)] | 0
EEISEVKMDA [Aβ-8-2 or APP 770 (E664-A673)] | 0
EISEVKMDAE [Aβ-7-3 or APP 770 (E665-E674)] | 0
ISEVKMDAEF [Aβ-6-4 or APP 770 (I666-F675)] | 0
SEVKMDAEFR [Aβ-5-5 or APP 770 (S667-R676)] | 0
EVKMDAEFRH [Aβ-4-6 or APP 770 (E668-H677)] | 0

target: Serum samples collected at week 16 from patients immunized with UBI AD vaccine (UB-311); assay: comp. ELISA, serum P107

Binder | IC50-based peak height
TEEISEVKMD [Aβ-9-1 or APP 770 (T663-D672)] | 0
EEISEVKMDA [Aβ-8-2 or APP 770 (E664-A673)] | 0
EISEVKMDAE [Aβ-7-3 or APP 770 (E665-E674)] | 0
ISEVKMDAEF [Aβ-6-4 or APP 770 (I666-F675)] | 0
SEVKMDAEFR [Aβ-5-5 or APP 770 (S667-R676)] | 0
EVKMDAEFRH [Aβ-4-6 or APP 770 (E668-H677)] | 0

target: Serum samples collected at week 16 from patients immunized with UBI AD vaccine (UB-311); assay: comp. ELISA, serum P109

Binder | IC50-based peak height
TEEISEVKMD [Aβ-9-1 or APP 770 (T663-D672)] | 0
EEISEVKMDA [Aβ-8-2 or APP 770 (E664-A673)] | 0
EISEVKMDAE [Aβ-7-3 or APP 770 (E665-E674)] | 0
ISEVKMDAEF [Aβ-6-4 or APP 770 (I666-F675)] | 0
SEVKMDAEFR [Aβ-5-5 or APP 770 (S667-R676)] | 0
EVKMDAEFRH [Aβ-4-6 or APP 770 (E668-H677)] | 0

target: Serum samples collected at week 16 from patients immunized with UBI AD vaccine (UB-311); assay: comp. ELISA, serum P202

Binder | IC50-based peak height
TEEISEVKMD [Aβ-9-1 or APP 770 (T663-D672)] | 0
EEISEVKMDA [Aβ-8-2 or APP 770 (E664-A673)] | 0
EISEVKMDAE [Aβ-7-3 or APP 770 (E665-E674)] | 0
ISEVKMDAEF [Aβ-6-4 or APP 770 (I666-F675)] | 0
SEVKMDAEFR [Aβ-5-5 or APP 770 (S667-R676)] | 0
EVKMDAEFRH [Aβ-4-6 or APP 770 (E668-H677)] | 0

target: Serum samples collected at week 16 from patients immunized with UBI AD vaccine (UB-311); assay: comp. ELISA, serum P104

Binder | IC50-based peak height
TEEISEVKMD [Aβ-9-1 or APP 770 (T663-D672)] | 0
EEISEVKMDA [Aβ-8-2 or APP 770 (E664-A673)] | 0
EISEVKMDAE [Aβ-7-3 or APP 770 (E665-E674)] | 0
ISEVKMDAEF [Aβ-6-4 or APP 770 (I666-F675)] | 0
SEVKMDAEFR [Aβ-5-5 or APP 770 (S667-R676)] | 0
EVKMDAEFRH [Aβ-4-6 or APP 770 (E668-H677)] | 0

target: Serum samples collected at week 16 from patients immunized with UBI AD vaccine (UB-311); assay: comp. ELISA, serum P208

Binder | IC50-based peak height
TEEISEVKMD [Aβ-9-1 or APP 770 (T663-D672)] | 0
EEISEVKMDA [Aβ-8-2 or APP 770 (E664-A673)] | 0
EISEVKMDAE [Aβ-7-3 or APP 770 (E665-E674)] | 0
ISEVKMDAEF [Aβ-6-4 or APP 770 (I666-F675)] | 0
SEVKMDAEFR [Aβ-5-5 or APP 770 (S667-R676)] | 0
EVKMDAEFRH [Aβ-4-6 or APP 770 (E668-H677)] | 0

target: Serum samples collected at week 16 from patients immunized with UBI AD vaccine (UB-311); assay: comp. ELISA, serum P102

Binder | IC50-based peak height
TEEISEVKMD [Aβ-9-1 or APP 770 (T663-D672)] | 0
EEISEVKMDA [Aβ-8-2 or APP 770 (E664-A673)] | 0
EISEVKMDAE [Aβ-7-3 or APP 770 (E665-E674)] | 0
ISEVKMDAEF [Aβ-6-4 or APP 770 (I666-F675)] | 0
SEVKMDAEFR [Aβ-5-5 or APP 770 (S667-R676)] | 0
EVKMDAEFRH [Aβ-4-6 or APP 770 (E668-H677)] | 0

target: Serum samples collected at week 16 from patients immunized with UBI AD vaccine (UB-311); assay: comp. ELISA, serum P106

Binder | IC50-based peak height
TEEISEVKMD [Aβ-9-1 or APP 770 (T663-D672)] | 0
EEISEVKMDA [Aβ-8-2 or APP 770 (E664-A673)] | 0
EISEVKMDAE [Aβ-7-3 or APP 770 (E665-E674)] | 0
ISEVKMDAEF [Aβ-6-4 or APP 770 (I666-F675)] | 0
SEVKMDAEFR [Aβ-5-5 or APP 770 (S667-R676)] | 0
EVKMDAEFRH [Aβ-4-6 or APP 770 (E668-H677)] | 0

target: Serum samples collected at week 16 from patients immunized with UBI AD vaccine (UB-311); assay: comp. ELISA, serum P206

Binder | IC50-based peak height
TEEISEVKMD [Aβ-9-1 or APP 770 (T663-D672)] | 0
EEISEVKMDA [Aβ-8-2 or APP 770 (E664-A673)] | 0
EISEVKMDAE [Aβ-7-3 or APP 770 (E665-E674)] | 0
ISEVKMDAEF [Aβ-6-4 or APP 770 (I666-F675)] | 0
SEVKMDAEFR [Aβ-5-5 or APP 770 (S667-R676)] | 0
EVKMDAEFRH [Aβ-4-6 or APP 770 (E668-H677)] | 0

target: Serum samples collected at week 16 from patients immunized with UBI AD vaccine (UB-311); assay: comp. ELISA, serum P210

Binder | IC50-based peak height
TEEISEVKMD [Aβ-9-1 or APP 770 (T663-D672)] | 0
EEISEVKMDA [Aβ-8-2 or APP 770 (E664-A673)] | 0
EISEVKMDAE [Aβ-7-3 or APP 770 (E665-E674)] | 0
ISEVKMDAEF [Aβ-6-4 or APP 770 (I666-F675)] | 0
SEVKMDAEFR [Aβ-5-5 or APP 770 (S667-R676)] | 0
EVKMDAEFRH [Aβ-4-6 or APP 770 (E668-H677)] | 0

target: Serum samples collected at week 16 from patients immunized with UBI AD vaccine (UB-311); assay: comp. ELISA, serum P101

Binder | IC50-based peak height
TEEISEVKMD [Aβ-9-1 or APP 770 (T663-D672)] | 0
EEISEVKMDA [Aβ-8-2 or APP 770 (E664-A673)] | 0
EISEVKMDAE [Aβ-7-3 or APP 770 (E665-E674)] | 0
ISEVKMDAEF [Aβ-6-4 or APP 770 (I666-F675)] | 0
SEVKMDAEFR [Aβ-5-5 or APP 770 (S667-R676)] | 10
EVKMDAEFRH [Aβ-4-6 or APP 770 (E668-H677)] | 1
